Data: paper PMC12183613, “Identification of novel small molecule inhibitors of ETS transcription factors”

Biological target: ETV6 full-length (UniProt P41212 1-452)
Assay: pull-down; fragment Fr18 (enhanced binding); Pull-down: 4 C, 30 min, 1 ug poly(dI/dC), 4 mM spermidine; wash in binding buffer 50 mM KCl, 10 mM HEPES pH 7.6, 5 mM MgCl2, 10 mM Tris pH 8, 0.05 mM EDTA, 0.1% Triton X-100, 20% glycerol. SPR: 25 mM HEPES pH 7.5, 100 mM NaCl, 1 mM EDTA, 1 mM beta-mercaptoethanol; NMR same buffer (296 K)
Settings: protein: ivt; tags: FLAG; only one strand given

Chain of ETV6 full-length (P41212 whole entry, the tested form may be a part): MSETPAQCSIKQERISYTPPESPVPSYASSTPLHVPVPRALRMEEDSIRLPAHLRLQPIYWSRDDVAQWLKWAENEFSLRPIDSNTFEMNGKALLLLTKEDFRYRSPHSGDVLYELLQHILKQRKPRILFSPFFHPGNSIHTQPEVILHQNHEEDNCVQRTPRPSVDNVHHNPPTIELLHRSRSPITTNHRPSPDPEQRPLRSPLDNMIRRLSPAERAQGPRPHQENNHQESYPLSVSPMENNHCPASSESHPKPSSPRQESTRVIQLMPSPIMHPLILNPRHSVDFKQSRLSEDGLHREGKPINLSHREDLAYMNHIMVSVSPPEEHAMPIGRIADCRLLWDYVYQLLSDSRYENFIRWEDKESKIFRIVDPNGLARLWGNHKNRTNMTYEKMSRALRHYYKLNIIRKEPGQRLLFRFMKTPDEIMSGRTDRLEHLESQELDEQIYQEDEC

B1: 3x consensus ETS oligonucleotide (biotinylated) (dsDNA)
DNA 1: ACCGGAAGTACCGGAAGTACCGGAAGT
DNA 2: ACTTCCGGTACTTCCGGTACTTCCGGT
B1: binds.
